Assay results taken from US12533409B2, “Compositions and methods for targeting mutant RAS” (The Trustees of the University of Pennsylvania, priority 2019, dated 2026).

B1: TCR847: TCR construct, TRAV17 and TRBV10-3; fusion protein SEQ ID NO: 80; HLA-B*07:02 (protein)
chain: METLLGVSLVILWLQLARVNSQQGEEDPQALSIQEGENATMNCSYKTSINNLQWYRQNSGRGLVHLILIRSNEREKHSGRLRVTLDTSKKSSSLLITASRAADTASYFCATFPNFGNEKLTFGTGTRLTIIPNIQNPDPAVYQLRDSKSSDKSVCLFTDFDSQTNVSQSKDSDVYITDKTVLDMRSMDFKSNSAVAWSNKSDFACANAFNNSIIPEDTFFPSPESSCDVKLVEKSFETDTNLNFQNLSVIGFRILLLKVAGFNLLMTLRLWSSGSGEGRGSLLTCGDVEENPGPMGTRLFFYVALCLLWTGHMDAGITQSPRHKVTETGTPVTLRCHQTENHRYMYWYRQDPGHGLRLIHYSYGVKDTDKGEVSDGYSVSRSKTEDFLLTLESATSSQTSVYFCAISESERYYEQYFGPGTRLTVTEDLKNVFPPEVAVFEPSEAEISHTQKATLVCLATGFYPDHVELSWWVNGKEVHSGVSTDPQPLKEQPALNDSRYCLSSRLRVSATFWQNPRNHFRCQVQFYGLSENDEWTQDRAKPVTQIVSAEAWGRADCGFTSESYQQGVLSATILYEILLGKATLYAVLVSALVLMAMVKRKDSRG
modifications: TCR847 FUSION
notes: TCR construct, TRAV17 and TRBV10-3; HLA-B*07:02

Tests used:
[1] = target: T1, HLA-A*11:01 (Homo sapiens, UniProt P04439, A114D/D185E/E176A/F33Y/L180Q/S129P/T187R); assay: Competitive peptide binding fluorescence polarization assay; conditions: peptide-MHC binding; strong binding affinity indicated by log[IC50]<3.7 (FIG. 6A)
Protocol: (§1) Experiments were also conducted to examine peptide-MHC binding.

[2] = target: T2, HLA-A*03:01 (Homo sapiens, UniProt P04439); assay: as above; conditions: peptide-MHC binding; strong binding affinity indicated by log[IC50]<3.7 (FIG. 6A)
Protocol: as §1

[3] = target: T1, HLA-A*11:01; assay: HLA class I immunoprecipitation peptide elution and tandem Mass Spec (MS/MS), monoallelic K562 RAS TMG cell lines; assay type: cell-based; parameters: expressed in transfected cells; host or cells: K562, lentiviral HLA construct plus RAS tandem minigene construct; conditions: A*11:01-restricted; antigen processing/presentation
From the text: (§2) Additional antigen processing and presentation studies were done using mass spectrometry. First, monoallelic K562 cell lines were created to express specific HLA types (FIG. 7A). Further, lentiviral constructs expressing various wt RAS and mRAS peptides were generated (FIG. 7E). Monoallelic cell lines that express specific HLA types and the various RAS and mRAS peptides were then created. The expression of HLA class I and HLA-specific expression of RAS TMG cells lines were verified by FACS (FIG. 7C and FIG. 7D).
(§3) Further, novel epitopes are identified for HLA-B*07:02.

[4] = target: T2, HLA-A*03:01; assay: as above; assay type: cell-based; parameters: expressed in transfected cells; host or cells: K562, lentiviral HLA construct plus RAS tandem minigene construct; conditions: A*03:01-restricted; antigen processing/presentation
From the text: as §2, §3

[5] = target: HLA-B*07:02 (Homo sapiens, UniProt P01889); assay: as above; assay type: cell-based; parameters: expressed in transfected cells; host or cells: K562, lentiviral HLA construct plus RAS tandem minigene construct; conditions: B*07:02-restricted; antigen processing/presentation
From the text: as §2, §3

[6] = test system: alternatively mutated RAS epitopes; assay: Jurkat Reporter assay of TCR specificity and cross-reactivity; assay type: cell-based; conditions: Jurkat Reporter cells; HLA-B*07:02-restricted TCR
Protocol: (§4) Further experiments were conducted to characterize TCR896 expression and function. TCR896 expression was validated by peptide-MHC multimer staining of lentiviral-transduced Jurkat Reporter cells, as shown in FIG. 28A. FIG. 28B depicts the results of experiments assessing TCR896 avidity by Jurkat Reporter cells. Experiments were conducted assessing TCR specificity and cross-reactivity to alternative mutant RAS epitopes by Jurkat Reporter assay. […] FIG. 28D depicts TCR activation of Jurkat Reporter cells following coculture with A*03:01 positive RAS G12V tumor cell lines.
(§5) Further experiments were done to characterize TCR847 expression and function. TCR847 expression was validated by peptide-MHC multimer staining of lentiviral-transduced Jurkat Reporter cells, as shown in FIG. 29A. FIG. 29B depicts the results of experiments assessing TCR specificity and cross-reactivity to alternative mutant RAS epitopes by Jurkat Reporter assay.
(§6) Further experiments were conducted to characterize TCR864 expression and function. TCR864 expression was validated by peptide-MHC multimer staining of lentiviral-transduced Jurkat Reporter cells, as shown in FIG. 30A. FIG. 30B depicts the results of experiments assessing TCR864 avidity by Jurkat Reporter cells. Experiments were conducted to examine TCR864 specificity and cross-reactivity to alternative mutant RAS epitopes by Jurkat Reporter assay. […] The expression of TCR864 on primary CD8+ T cells is depicted in FIG. 30D.

[7] = target: RAS G12R (GA_R) (Homo sapiens, UniProt P01116+P01889, G12R); assay: as above; assay type: cell-based; conditions: Jurkat Reporter cells
Protocol: as §5, §6

[8] = test system: wildtype RAS epitope; assay: as above; assay type: cell-based; conditions: Jurkat Reporter cells; HLA-B*07:02-restricted TCR
Protocol: The validation of TCR831 expression by peptide-MHC multimer staining of lentiviral-transduced Jurkat Reporter cells is shown in FIG. 25A. Experiments were conducted to examine TCR831 avidity by Jurkat Reporter cells (FIG. 25B). Experiments were also conducted to assess TCR831 specificity and cross-reactivity to alternative mutant RAS epitopes by Jurkat Reporter assay. […] depicts TCR activation of Jurkat Reporter cells following coculture with A*11:01 positive RAS G12V tumor cell lines. FIG. 25E depicts the expression of TCR831 on primary CD8+ T cells. […] Cell line coloring corresponds to that in FIG. 25D.
Experiments were also conducted to further characterize the expression and function of TCR833. The validation of TCR833 expression by peptide-MHC multimer staining of lentiviral-transduced Jurkat Reporter cells is shown in FIG. 26A. FIG. 26B depicts the results of experiments assessing TCR833 avidity by Jurkat Reporter cells. Experiments were also conducted to assess TCR833 specificity and cross-reactivity to alternative mutant RAS epitopes by Jurkat Reporter assay. […] FIG. 26D depicts TCR833 activation of Jurkat Reporter cells following coculture with A*11:01 positive RAS G12V tumor cell lines.
as §5, with “conducted” for “done”, “TCR897” for “TCR847”, “27A.” for “29A.”, “27B” for “29B”, “TCR897 avidity by Jurkat Reporter cells. Experiments were conducted to assess TCR897” for “TCR”
as §4, §5, §6

Row | Molecule | binding affinity of mRAS neoepitope for HLA-A*11:01 [1] | detection of mRAS epitope by HLA class I immunoprecipitation peptide elution and MS/MS [3] | detection of mRAS epitope by HLA class I immunoprecipitation peptide elution and MS/MS [4] | other results
1 | VVVGAVGVGK [VVV_V] | high binding affinity | detection | detection | binding affinity of mRAS neoepitope for HLA-A*03:01 [2]: high binding affinity
2 | VVGADGVGK [VV_D] | high binding affinity | detection | – | –
3 | VVVGADGVGK [VVV_D] | high binding affinity | detection | detection | –
4 | VVVGARGVGK (VVV_R) [mRAS peptide, G12R, HLA-A*03:01 and HLA-A*11:01] | high binding affinity | – | – | binding affinity of mRAS neoepitope for HLA-A*03:01 [2]: high binding affinity
5 | GADGVGKSAL (GA_D) [mRAS peptide, G12D, HLA-B*07:02] | – | – | – | detection of mRAS epitope by HLA class I immunoprecipitation peptide elution and MS/MS [5]: identified new epitopes
6 | VVGACGVGK [VV_C] | high binding affinity | – | – | –
7 | VVGARGVGK (VV_R) [mRAS peptide, G12R, HLA-A*03:01 and HLA-A*11:01] | high binding affinity | detection | detection | –
8 | B1 | – | – | – | reactivity to alternatively mutated RAS epitopes [6]: not wildtype or alternatively mutated; specificity for RAS G12R (GA_R) [7]: exhibits specificity; reactivity to wildtype [8]: not wildtype
